Experimental data: patent US12077566B2, “Mutants of recombinant immunoregulatory protein of Ganoderma lucidum and applications thereof” (priority 2017, dated 2024)
Positions count from the first letter of the chain named. Names may count otherwise. “Also recorded” adds a separate entry of the source.

B1: rLZ-8 (K16A/K41A): alanine mutant of rLZ-8 at K16 and K41 (protein)
chain: MSDTALIFRLAWDVKALSFDYTPNWGRGNPNNFIDTVTFPAVLTDKAYTYRVAVSGRNLGVKPSYAVESDGSQKVNFLEYNSGYGIADTNTIQVFVVDPDTNNDFIIAQWN
B2: rLZ-8 (K46E): rLZ-8 mutant K46E (protein)
chain: B1 chain with A16K, A41K, K46E
B3: rLZ-8 (D20H): rLZ-8 mutant after surface potential optimization, D20H (protein)
chain: B1 chain with A16K, D20H, A41K
B4: rLZ-8 (D45A): alanine mutant of rLZ-8 at D45 (protein)
chain: B1 chain with A16K, A41K, D45A
B5: rLZ-8 (K41D/K46E/K74E): rLZ-8 mutant K41D, K46E and K74E (protein)
chain: B1 chain with A16K, A41D, K46E, K74E
B6: rLZ-8 (K46E/K74E): rLZ-8 mutant K46E and K74E (protein)
chain: B1 chain with A16K, A41K, K46E, K74E
B7: rLZ-8 (L17K): rLZ-8 mutant after surface potential optimization, L17K (protein)
chain: B1 chain with A16K, L17K, A41K
B8: rLZ-8 (D20H/D70K): rLZ-8 mutant after surface potential optimization, D20H and D70K (protein)
chain: B1 chain with A16K, D20H, A41K, D70K
B9: rLZ-8 (R9A): alanine mutant of rLZ-8 at R9 (protein)
chain: B1 chain with R9A, A16K, A41K
B10: rLZ-8 (M1A/R9A/D100A): rLZ-8 mutant named only in Tables 2, 3, 7 and 8 (protein)
chain: B1 chain with M1A, R9A, A16K, A41K, D100A
B11: FIP-fve: fungai immunomodulatory protein from flammulina velutipes (protein)
chain: SATSLTFQLAYLVKKIDFDYTPNWGRGTPSSYIDNLTFPKVLTDKKYSYRVVVNGSDLGVESNFAVTPSGGQTINFLQYNKGYGVADTKTIQVFVVIPDTGNSEEYIIAEWKKT

tested on: human lung cancer A549 cells; experiment: Orthotopic transplantation tumor model of human lung cancer A549 cells; conditions: after administration for 28 days;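 also: test animals were NOG mice aged 6-8 weeks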
Description: The human lung cancer A549 cell strain is selected. The NOG Mice of 6-8 weeks old are selected.
The DMEM containing 10% fetal bovine serum is selected for the human lung cancer A549 cells, and then is placed in the CO2 constant-temperature incubator at 37° C. for culturing. The A549 cells at the logarithmic phase are digested by pancreatin and thereafter washed with serum-free DMEM; the living cell concentration is adjusted to 1×10^8 cells per milliliter; 20 μL cell suspension is taken and inoculated at the lung of the NOG mice; two weeks later, the orthotopic transplantation tumor model of A549 lung cancer cells is constructed in the NOG mice.

Molecule	Mice survival rate after experiment [%]	Mice tumor weight after experiment [g]	Mice weight after experiment [g]	Tumor inhibitory effect (in words)
B1	20	1.26 ± 0.77	17.4 ± 1.5	nearly no tumor inhibitory effect
B2	40	0.65 ± 0.31	20.4 ± 1.6	
B3	70	0.51 ± 0.32	19.9 ± 1.7	
B4	30	1.28 ± 0.68	17.5 ± 1.5	nearly no tumor inhibitory effect
B5	40	1.20 ± 0.62	19.1 ± 1.3	
B6	50	0.63 ± 0.41	20.0 ± 1.5	
B7	70	0.53 ± 0.30		
B8	70	0.49 ± 0.28	20.6 ± 1.7	
B9	50	0.69 ± 0.53	20.0 ± 1.4	

tested on: liver cancer, lung cancer, breast cancer and colon cancer; experiment: Animal pharmacodynamic experiments of liver, lung, breast and colon cancer (summary statement); assay type: in vivo, mice; conditions: breast and colon cancer models together

Molecule	Tumor inhibitory effect (in words)
B1	nearly no tumor inhibitory effect
B4	nearly no tumor inhibitory effect

tested on: human breast cancer MCF7 cells; experiment: Orthotopic transplantation tumor model of human breast cancer MCF7 cells; assay type: in vivo, BALB/c nude mice; conditions: after administration for 28 days
Description: One day before the experiment, 0.5 mg of 17ß estradiol sustained release tablet is embedded below the neck skin of the BALB/c nude mice.

Molecule	Mice tumor weight after experiment [g]	Tumor inhibitory effect (in words)
B1	1.12 ± 0.37	nearly no tumor inhibitory effect
B2	0.75 ± 0.32	
B3	0.61 ± 0.22	
B4	1.08 ± 0.28	nearly no tumor inhibitory effect
B5	1.10 ± 0.42	
B10	0.77 ± 0.32	
B6	0.73 ± 0.24	
B7	0.63 ± 0.31	
B8	0.60 ± 0.27	
B9	0.79 ± 0.31	

tested on: human colon cancer SW480 cells; experiment: Transplantation tumor model of human colon cancer SW480 cells; assay type: in vivo, BALB/c nude mice; conditions: after administration for 28 days
Description: The RPMI1640 medium containing 10% fetal bovine serum is selected for the human colon cancer SW480 cells, and then is placed in the CO2 constant-temperature incubator at 37° C. for culturing. The SW480 cells at the logarithmic phase are digested by pancreatin and thereafter washed with serum-free RPMI1640 medium; 2×10^6 cells are inoculated below the back skin of the BALB/c nude mice; after the tumor blocks for observation are formed and have the diameter larger than 0.5 cm, the mice are divided into groups randomly; and the transplantation tumor model of human colon cancer SW480 cells are constructed in the BALB/c nude mice.

Molecule	Mice tumor weight after experiment [g]	Tumor inhibitory effect (in words)
B1	3.12 ± 0.47	nearly no tumor inhibitory effect
B2	2.15 ± 0.62	
B3	1.54 ± 0.45	
B4	3.26 ± 0.56	nearly no tumor inhibitory effect
B5	3.10 ± 0.48	
B10	1.97 ± 0.35	
B6	2.23 ± 0.54	
B7	1.62 ± 0.41	
B8	1.60 ± 0.29	
B9	1.89 ± 0.37	

tested on: human liver cancer Hep G2 cells; experiment: not given; conditions: after administration for 28 days
Text: Two weeks later, the model mice are divided into groups randomly, and each group has 10 mice. The administration method is caudal vein injection, once a day, for consecutive 28 days (qd×28, i.v.). […] During the experiment, if the mouse dies, the dead mouse is weighted on the same day, and the tumor tissue is taken out to be weighted. For the living mouse after administration for 28 days, the mouse is killed, and then the tumor tissue is taken out to be weighted. The death time and death number of the mice in each group are recorded in detail; the survival conditions of the mice of the experimental groups and the control groups are analyzed, and the survival rate is calculated, wherein the survival rate is obtained through subtracting the death number of the mice from the total number of the mice, and then dividing the difference by the total number of the mice.

Molecule	Tumor inhibitory effect (in words)
B1	nearly no tumor inhibitory effect
B4	nearly no tumor inhibitory effect

same assay, conditions: mouse, in vivo

Molecule	Mice weight after experiment [g]
B1	17.2 ± 1.3
B2	19.4 ± 1.8
B3	19.7 ± 1.7
B4	17.4 ± 1.6
B5	20.0 ± 1.2
B6	20.1 ± 1.7
B7	20.1 ± 1.4
B8	20.1 ± 1.5
B9	19.3 ± 1.3

same assay, conditions: qd×28 i.v.; rLZ-8 and mutants 0.5 mg/kg, sorafenib 50 mg/kg

Molecule	Mice tumor weight after experiment [g]
B1	1.46 ± 0.93
B2	0.75 ± 0.44
B3	0.60 ± 0.31
B4	1.44 ± 0.80
B5	1.25 ± 0.53
B10	0.78 ± 0.67
B6	0.69 ± 0.42
B7	0.58 ± 0.33
B8	0.51 ± 0.27
B9	0.65 ± 0.43

same assay, conditions: qd×28 i.v.; rLZ-8 and mutants 0.5 mg/kg, sorafenib 50 mg/kg; 10 mice per group

Molecule	Survival rate of mice after experiment [%]
B1	20
B2	60
B3	60
B4	50
B5	40
B10	60
B6	60
B7	70
B8	70
B9	50

target: EGFR extracellular domain (Homo sapiens, UniProt P00533); experiment: Affinity test by surface plasmon resonance (Biacore T200, CM5 chip); assay type: binding; conditions: EGFR extracellular domain coupled on CM5 chip, analyte 4-256 nM
Description: The Biacore™ T200 equipment (a Surface Plasmon Resonance from GE Company) is selected. Through the surface plasma resonance technology, the affinity of the rLZ-8 and the mutants thereof to the EGFR extracellular domain is tested. The CM5 chip is adopted to serve as the affinity test chip.
The EGFR extracellular domain (with an amino acid sequence of 25-645) serves as the ligand for coupling; 1 mg EGFR freeze-dried powders are diluted with HEPES buffer solution to a concentration of 400 μg/mL and set aside. Three 1.5 mL EP tubes are prepared; 10 μL ligand are respectively added into the three tubes, then 90 μL 10 mM sodium acetate with different pH values of 4.5, 5.0 and 5.5 are respectively added into the tubes and are mixed completely and uniformly; and a final concentration of the ligand is 40 μg/mL. Moreover, 200 μL 50 mM sodium acetate is added into another 1.5 mL EP tube.
The ligand has a molecular weight of 70 kDa, the analyte (rLZ-8) has a molecular weight of 12.4 kDa. In theory, one rLZ-8 […] can bind with one EGFR, and thus the stoichiometric ratio Sm is equal to 1. Through the following equations, the coupling amount RL of the ligand is calculated.
Through the experimental experience, the optimal reagent coupling amount is set to be 3*RL, and the coupling amount is set to be 1700 RU. The EGFR extracellular domain is successively coupled on the CM5 chip.
In the affinity test, in order to eliminate the influence of different concentrations on the affinity, every of the rLZ-8 and the mutants thereof are tested with eight concentrations, wherein: seven concentrations are gradient concentrations, and the last one is the test reference concentration.

Molecule	Dissociation rate constant (koff) [s⁻¹]	Ka [M⁻¹ s⁻¹]
B1	0.000273	220
B3	0.000432	58700
B4		1200
B5		35300
B6	0.000614	65700
B7	7.56e-05	10100
B9	0.000528	61200

same assay, conditions: compared with rLZ-8

Molecule	Affinity with the EGFR (in words)
B11	does not have the capacity of binding with the EGFR
B1	obviously decreased by 2-3 orders of magnitudes
B4	obviously decreased by 2-3 orders of magnitudes; also recorded: obviously decreased affinity
B5	decreased
B9	no obvious change

same assay, conditions: compared with rLZ-8; listed as rLZ-8 (K16A/K41 A)

Molecule	Affinity with the EGFR (in words)
B1	obviously decreased affinity
